Molecular target: cynomolgus PCSK9 antigen (NCBI NM_001112660.1) (cynomolgus)
Experiment: BLI (Octet Red 96), antibody on anti-human IgG Fc (AHC) biosensor, PCSK9 in solution, 1:1 model

| Kd [nM] | koff [s⁻¹] | kon [M⁻¹ s⁻¹] | Binder |
| --- | --- | --- | --- |
| 0.08 | 2.46e-05 | 308000 | monoclonal antibody 9M283 (antibody, human IgG2, lambda, V domains shown) VH: QVQLVQSGAEVKKPGSSVKVSCKASAFTFDSFGMHWVRQAPGQGLEWMGLLWSDGSDEYYADSAKGRFTISRDNSKNTLYLQMNSLRSDDTAVYYCARALGAIYSYYAMDVWGQGTTVTVSS VL: QSALTQPPSVSGSPGQSVTISCTGTSSNIGNQFVSWYQQLPGTAPKLMIYEYNKRPSGVPDRFSGSKSGNTASLTISGLQTGDEADYYCGSWDSSLSGYVFGTGTRVTVLG |
| < 0.001 | < 1e-07 | 298000 | monoclonal antibody 9M284 (antibody, human IgG2, lambda) heavy: QVQLVQSGAEVKKPGSSVKVSCKASAFTFDSFGMHWVRQAPGQGLEWMGLLWSDGSGEYYADSAKGRFTISRDNSKNTLYLQMNSLRSDDTAVYYCARAMGAIYYYYAMDVWGQGTTVTVSSASTKGPSVFPLAPCSRSTSESTAALGCLVKDYFPEPVTVSWNSGALTSGVHTFPAVLQSSGLYSLSSVVTVPSSNFGTQTYTCNVDHKPSNTKVDKTVERKCCVECPPCPAPPVAGPSVFLFPPKPKDTLMISRTPEVTCVVVDVSHEDPEVQFNWYVDGVEVHNAKTKPREEQFNSTFRVVSVLTVVHQDWLNGKEYKCKVSNKGLPAPIEKTISKTKGQPREPQVYTLPPSREEMTKNQVSLTCLVKGFYPSDIAVEWESNGQPENNYKTTPPMLDSDGSFFLYSKLTVDKSRWQQGNVFSCSVMHEALHNHYTQKSLSLSPG light: QSALTQPPSVSGSPGQSVTISCTGTSSNIGNQFVSWYQQLPGTAPKLMIYEYNKRPSGVPDRFSGSKSGNTASLTISGLQTGDEADYYCGSWDSSLSGYVFGTGTRVTVLGQPKAAPSVTLFPPSSEELQANKATLVCLISDFYPGAVTVAWKADSSPVKAGVETTTPSKQSNNKYAASSYLSLTPEQWKSHRSYSCQVTHEGSTVEKTVAPTECS |
